Where a chain is given by its changes, count along the chain named.
T1: human ABCC4 (Homo sapiens, UniProt O15439)
T1 construct: expressed in transfected cells
T1 sequence (O15439 1-1325): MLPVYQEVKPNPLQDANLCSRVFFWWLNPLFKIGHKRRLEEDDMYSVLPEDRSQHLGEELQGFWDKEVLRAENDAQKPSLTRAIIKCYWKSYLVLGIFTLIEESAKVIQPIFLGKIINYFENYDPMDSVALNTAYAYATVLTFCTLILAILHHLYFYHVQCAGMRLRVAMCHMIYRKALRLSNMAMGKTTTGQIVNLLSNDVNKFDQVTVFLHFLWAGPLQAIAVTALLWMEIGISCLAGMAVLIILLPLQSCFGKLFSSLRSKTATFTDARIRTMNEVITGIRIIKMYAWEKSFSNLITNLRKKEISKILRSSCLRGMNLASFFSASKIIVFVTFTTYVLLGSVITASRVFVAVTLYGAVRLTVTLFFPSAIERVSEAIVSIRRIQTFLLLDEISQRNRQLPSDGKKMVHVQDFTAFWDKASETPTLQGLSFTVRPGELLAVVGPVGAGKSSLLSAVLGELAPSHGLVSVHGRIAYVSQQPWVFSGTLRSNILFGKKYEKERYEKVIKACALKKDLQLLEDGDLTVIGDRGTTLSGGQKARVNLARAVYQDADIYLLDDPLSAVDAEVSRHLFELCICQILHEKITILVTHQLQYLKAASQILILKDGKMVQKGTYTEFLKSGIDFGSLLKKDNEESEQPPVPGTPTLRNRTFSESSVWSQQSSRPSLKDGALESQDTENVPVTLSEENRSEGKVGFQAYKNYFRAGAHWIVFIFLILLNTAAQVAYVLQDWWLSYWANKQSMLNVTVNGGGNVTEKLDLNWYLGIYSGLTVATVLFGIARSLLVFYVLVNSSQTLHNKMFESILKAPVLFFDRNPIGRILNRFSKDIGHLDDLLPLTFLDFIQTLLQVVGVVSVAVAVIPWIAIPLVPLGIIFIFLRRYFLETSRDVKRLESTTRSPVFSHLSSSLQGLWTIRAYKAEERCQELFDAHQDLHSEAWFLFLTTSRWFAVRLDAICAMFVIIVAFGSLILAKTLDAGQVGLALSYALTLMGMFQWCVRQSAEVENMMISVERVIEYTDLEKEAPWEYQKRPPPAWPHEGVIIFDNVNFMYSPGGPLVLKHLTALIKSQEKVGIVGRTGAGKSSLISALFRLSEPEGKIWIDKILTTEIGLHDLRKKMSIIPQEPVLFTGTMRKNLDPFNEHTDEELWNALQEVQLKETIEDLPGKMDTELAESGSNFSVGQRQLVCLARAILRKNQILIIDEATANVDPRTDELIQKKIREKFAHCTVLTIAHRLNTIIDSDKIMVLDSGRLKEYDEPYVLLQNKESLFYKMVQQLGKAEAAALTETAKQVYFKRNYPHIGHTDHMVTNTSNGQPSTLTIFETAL

B1: C4.957: anti-ABCC4 antibody raised in rats; VH SEQ ID NO: 8, VL SEQ ID NO: 127 (antibody, V domains shown)
VH: EVQLKESGPGLVQPSQTLSLTCTVSGFSLTNYGVSWVRQPPGKGLEWIGAIWSGGSTGYNSALKSRLSISRDTSKSQVLLKMNSLQTEDTAMYFCARSGVEGPPFDYWGQGASVTVSS
VL: AIQVTQSPTSLSASLGDRVTLTCRASQDINNKMAWYQQKPGEVPQLLIYYASTLQSGTPSRFSGSGSGTDFSFTISHLQSEDFATYYCLQGYSLYTFGAGTKLELK
B2: C4.956: anti-ABCC4 antibody raised in rats; VH SEQ ID NO: 7, VL SEQ ID NO: 127 (antibody, V domains shown)
VH: QLKESGPGLVKPSQSLSLTCSVTGYTITSGYDWTWLRKFPGNKMEWMGYISYSGFTNYNPSLRSRISITRDTSKNQFFLQLNSVTAEDTATYFCTRTRGYNPFPYWGQGTLVTVSS
VL: B1 VL
B3: C4.1164: anti-ABCC4 antibody raised in rats; VH SEQ ID NO: 36, VL SEQ ID NO: 153 (antibody, V domains shown)
VH: EVQLVESDGGLVQPGRSLKLSCAASGFTFSDYYMAWVRQAPTKGLYWVASISYDGSTTYYRDSVKGRFTISRDNAKSTLYLQMGSLRSEDTATYYCARLSIRYKGVMDAWGRGASVTVS
VL: DIQMTQSPSNLAASPGESVSINCKASETIYKYLAWYQQKPGRTNKLLIYSGSTLQSGTPSRFSGSGSGTDFTLTIRNLEPEDFGRYYCQHHVEYPPTFGAGTKLELK
B4: C4.1073: anti-ABCC4 antibody raised in rats; VH SEQ ID NO: 24, VL SEQ ID NO: 146 (antibody, V domains shown)
VH: EVQMKESGPGLVQPSQTLSLTCTVSGFSLTSYHVHWVRQPPGKGLEWMGVMWSDGDTSYNSALKSRLSINRDTSQSRVFLKMNSLQTEDTSTYYCARDRDVLYYDGDFSPFVMDAWGQGASVTVSS
VL: DIQMTQSPSNLAASPGESVSINCKASKSISKFLAWYQQKSGKANKLLIYSASTLQSGTPSRFSGSGSGTDFTLTIRNLEPEDFGLYYCQQHNEYPLTFGSGTKLEIK
B5: C4.1143: anti-ABCC4 antibody raised in rats; VH SEQ ID NO: 31, VL SEQ ID NO: 148 (antibody, V domains shown)
VH: EVQLVESDGGLLQPGRSLKLSCAASGFTFSDFYMAWVRQAPTKGLEWIATISHDGRNTYYRDSVKGRFTISRDNAKRTLYLEMDSLRSEDTATYYCATLTTRYKGVMEAWGQGASVTVSS
VL: DVVMTQSPSHLAASPGESVSINCKASKNIYKYLAWYQQKPGKTNKLLIYSGSTLQSGTPSRFSGSGSGSDFTLTIRNLEPEDFGLYYCQHHNEYPPTFGGGTKLEIK
B6: C4.1075: anti-ABCC4 antibody raised in rats; VH SEQ ID NO: 25, VL SEQ ID NO: 141 (antibody, V domains shown)
VH: EVQLKESGPGLVQPSQTLSLTCTVSGLSLISSNINWVRQPPGKGLEWIGAISSGGSAFYNSALKSRLTSSRDTSKSQVFLKMNSLQTEDTAIYFCARGGSEDPDYFDYWGQGVMVTVSS
VL: DIVMTQSPSSLAVSAGETVTINCKSSQSLLYSGNQKNYLAWYQQKPGQSPKLLIYWSSTRQSGVPDRFMGSGSGTDFTLTISSVQAEDLAIYYCQQYYDTPLTFGSGTKLEIK
B7: C4.1069: anti-ABCC4 antibody raised in rats; VH SEQ ID NO: 22, VL SEQ ID NO: 144 (antibody, V domains shown)
VH: GLVQPSQTLSLTCTVSGFSLNSNGVSWVRQPPGKGLEWIVEISSGGSAFYNSALKSRLSISRDTSKSQVFLKMNSLQTEDTAIYFCTRGGTEDPDYFDYWGQGASVTVSS
VL: B6 VL with M4L, K45T, S57A, M69I, T78I, S82T, L102V, I112L
B8: C4.970: anti-ABCC4 antibody raised in rats; VH SEQ ID NO: 10, VL SEQ ID NO: 131 (antibody, V domains shown)
VH: EVQLVESGPGLVQPSQTLSLTCTVAGFSLTSYNVHWVRQPPGKGLEWMGVIWNTGDTRYDSALKSRLSISKDTSKSQVFLNMNSLQTEDTATYYCARDDNVYYGMHAMDAWGQGASVTVSS
VL: DIKMIQSPSSLSASLGERVTISCRASENINNYLSWYQKKEDGSVKLLIYHTSRLQPGAPSRFSGSGSGKDYSLTISGLDSEDIATYYCQQGYTPPTFGAGTKLELK

molecular target: T1, human ABCC4; assay: Flow cytometry (FACS) binding to C6 cells stably transfected to express human ABCC4 (different experiment, Table 4); conditions: C6 cells stably transfected to express human ABCC4, FACS; different experiment, Table 4
Protocol: (§1) Binding titration of recombinant antibodies to ABCC4 transfectants was performed by serial dilution of antibodies from about 666 nM. Diluted antibody in flow cytometry buffer was incubated with cells on ice for 30 min. After 2 washes with flow cytometry buffer, bound antibody was detected with PE-labeled F(ab′)2 fragment goat anti-human IgG (Jackson ImmunoResearch) diluted 1:200 in flow cytometry buffer and incubated with cells for 20 min on ice. After 2 washes with flow cytometry buffer fluorescence was measured on an Attune N×T flow cytometer. Data were analyzed with GraphPad Prism 8.0 software to determine EC50's.
(§2) Human embryonic kidney HEK 293T cells and murine C6 (ATCC CCL-107) were transfected with human or cynomolgus ABCC4 cDNA with C-terminal fused FLAG tag in a pMONO-hygro vector with Lipofectamine 3000 (Invitrogen #L3000001). The cells were treated with 0.2 mg/ml and 0.5 mg/ml hygromycin respectively for about 2 weeks while cultivated in DMEM and 10% FBS with 0.2 mg/ml hygromycin and 0.5 mg/ml hygromycin, respectively. The cells were washed with PBS, and stained with […] of anti-FLAG-PE after fixing and permeablization. Clones expressing ABCC4 were single-cell sorted into 200 μl DMEM with 10% FBS using a BD Aria FACS machine and cultivated in 96 well plates using standard techniques in an incubator at 37° C. and 5% CO 2. Two weeks later clones expressing high levels of ABCC4 were screened and amplified.
(§3) Antibody binding to cells was evaluated by flow cytometry. Murine C6 cells stably transfected to express human or cynomolgus ABCC4 were washed once in flow cytometry buffer (PBS+2% FBS+0.02% sodium azide), resuspended at 2×10^6 cells/mL in flow cytometry buffer, and dispensed into 96-well microtiter plates at 0.1 mL/well. Recombinant antibodies were added to cells at 5 ug/mL for initial binding confirmation, or serially diluted from 100 ug/mL in flow cytometry buffer. After incubating cells on ice for 30 min, cells were washed twice with flow cytometry buffer. Bound antibody was detected with PE-labeled F(ab′)2 fragment goat anti-human IgG (Jackson ImmunoResearch) and evaluated on an Attune N×T flow cytometer. EC50 is calculated to be the concentration of antibody that gives half maximal response.
(§4) In a different experiment, using a different C6.cC4 cell line, detecting the binding of anti-ABCC4 antibodies to C6 cells stably transfected to express human ABCC4 measured by FACS and to C6 cells stably transfected to express cynomolgus ABCC4 measured by FACS, the results set forth in Table 4 were obtained. Negative (−)=Rmax (MFI) below background level. Positive (+)=MFI>3× background level.

Molecule | Human ABCC4 binding
B1 | + (Positive (+)=MFI>3× background level)
B2 | + (Positive (+)=MFI>3× background level)
B3 | + (Positive (+)=MFI>3× background level)
B4 | + (Positive (+)=MFI>3× background level)
B5 | + (Positive (+)=MFI>3× background level)
B6 | + (Positive (+)=MFI>3× background level)
B7 | + (Positive (+)=MFI>3× background level)
B8 | + (Positive (+)=MFI>3× background level)

same assay, conditions: Table 4 study, stated in words

Molecule | binding to human ABCC4 expressed on cell surface
B1 | bind to both human and cynomolgus ABCC4
B3 | bind to both human and cynomolgus ABCC4
B4 | bind to both human and cynomolgus ABCC4
B5 | bind to both human and cynomolgus ABCC4
B6 | bind to both human and cynomolgus ABCC4
B7 | bind to both human and cynomolgus ABCC4

system: cynomolgus ABCC4; assay: Flow cytometry (FACS) binding to C6 cells stably transfected to express cynomolgus ABCC4 (different experiment, different C6.cC4 cell line, Table 4); parameters: key to Cynomolgus ABCC4 binding: Negative (−)=Rmax (MFI) below background level; Positive (+)=MFI>3× background level; conditions: Table 4 study, stated in words
Protocol: as §1, §2, §3, §4

Molecule | binding to cynomolgus ABCC4 expressed on cell surface
B1 | bind to both human and cynomolgus ABCC4
B3 | bind to both human and cynomolgus ABCC4
B4 | bind to both human and cynomolgus ABCC4
B5 | bind to both human and cynomolgus ABCC4
B6 | bind to both human and cynomolgus ABCC4
B7 | bind to both human and cynomolgus ABCC4

same assay, conditions: different C6.cC4 cell line, C6 cells stably transfected to express cynomolgus ABCC4, FACS; Table 4

Molecule | Cynomolgus ABCC4 binding
B1 | + (Positive (+)=MFI>3× background level)
B2 | −
B3 | + (Positive (+)=MFI>3× background level)
B4 | + (Positive (+)=MFI>3× background level)
B5 | + (Positive (+)=MFI>3× background level)
B6 | + (Positive (+)=MFI>3× background level)
B7 | + (Positive (+)=MFI>3× background level)
B8 | −

From US20240010747A1, “ANTI-MRP4 (ENCODED BY ABCC4 GENE) ANTIBODIES AND USES THEREOF” (Kenjockety Biotechnology, Inc., priority 2020, published 2024)
